Test system: His6-Ubl1 in complex with N;Nucleocapsid (N) protein (SARS-CoV-2;SARS-CoV-2)
Test: EMSA
Conditions: 50 mM Tris-HCl pH 8, 150 mM NaCl, 5 mM CaCl2 ([…]

## 5' UTR 1-245 ssRNA
  Kd: 6.2 nM
